In US20130344070A1 (SORRENTO THERAPEUTICS, published 2013):

Assays:
[1] = target: T1, human CCR2 (CC-Chemokine Receptor 2) (human, UniProt P41597 1-374); experiment: flow cytometry on CHO-huCCR2 cells, PE anti-human IgG
T1 construct: whole, on cells; also called huCCR2; CHO-huCCR2
Procedure: The data in FIG. 1 illustrates in vitro data for cellular binding EC₅₀ measurements. […] In this example, CHO-CCR2 cells were lifted from culture flasks using non-enzymatic Cell Dissociation Buffer—PBS based (Life Technologies #13151-014). Cells were resuspended in FACS Buffer (2% Fetal Bovine Serum in PBS) at 1×10⁶ cells/ml and 100 μl (1×10⁵ cells) were aliquoted into the wells of a 96-well plate. Plated cells were spun down and the supernatant discarded. Cells were resuspended in 50 μl FACS Buffer containing the indicated concentrations of CCR2 D1 IgG in triplicate (FIG. 1). Plates were incubated for 1 hr at 4° C., then washed 1× with FACS Buffer. Cells were resuspended in 50 μl goat anti-human IgG (γ-chain specific)-PE conjugated secondary antibody (Southern Biotech #2040-09) diluted 1:500 in FACS Buffer. Cells were further incubated for 30 min at 4° C. and then washed 1× with FACS Buffer. The cells were resuspended in a final volume of 25 μl FACS Buffer and analyzed using the Intellicyt Flow Cytometer. Median fluorescence in the FL-2H channel was determined using FlowJo software and EC₅₀ value was determined by plotting the data in GraphPad Prism and analyzing using a variable slope non-linear regression.

[2] = target: T1, human CCR2 (CC-Chemokine Receptor 2); experiment: cell-based or functional assay
murine CCR2 [3] = target: T2, murine CCR2 (murine, UniProt P51683 1-373); experiment: cell-based or functional assay
T2 sequence (P51683 whole entry): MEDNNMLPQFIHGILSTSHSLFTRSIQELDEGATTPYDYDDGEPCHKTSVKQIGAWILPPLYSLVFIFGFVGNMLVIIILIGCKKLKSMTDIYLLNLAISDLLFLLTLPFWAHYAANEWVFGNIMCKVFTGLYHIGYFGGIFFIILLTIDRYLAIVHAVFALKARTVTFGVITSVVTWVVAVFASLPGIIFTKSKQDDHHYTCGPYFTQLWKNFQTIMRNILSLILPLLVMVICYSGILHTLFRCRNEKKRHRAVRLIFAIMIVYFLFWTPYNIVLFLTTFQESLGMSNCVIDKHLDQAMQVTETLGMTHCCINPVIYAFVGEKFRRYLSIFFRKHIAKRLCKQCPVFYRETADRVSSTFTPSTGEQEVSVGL

murine CCR2 [4] = target: T2, murine CCR2; experiment: flow cytometry on WEHI 274.1 cells (murine CCR2), PE anti-human IgG
Procedure: In this example, WEHI 274.1 cells were resuspended in FACS Buffer (2% Fetal Bovine Serum in PBS) at 1×10⁶ cells and […] of cell suspension was aliquoted into the wells of a 96-well plate. Plated cells were spun down and the supernatant discarded. Cells were resuspended in 30 μl FACS Buffer containing serially diluted anti-CCR2 IgGs in triplicate. Plates were incubated for 1 hr at 4° C., then washed 2× with FACS Buffer. Cells were resuspended in 50 μl goat anti-human IgG (γ-chain specific)-PE conjugated secondary antibody (Southern Biotech #2040-09) diluted 1:500 in FACS Buffer, incubated for 30 min at 4° C. and then washed 1× with FACS Buffer. The cells were resuspended in a final volume of 30 μl FACS Buffer and analyzed using the Intellicyt Flow Cytometer. Median fluorescence in the FL-2H channel was determined using FlowJo software and EC₅₀ values were determined by plotting the data in GraphPad Prism and analyzed using a variable slope non-linear regression.

[5] = target: T1, human CCR2 (CC-Chemokine Receptor 2); experiment: cell-based or functional assay; remark: listed apart in the source
[6] = target: T1, human CCR2 (CC-Chemokine Receptor 2); experiment: cell-based or functional assay; remark: listed apart in the source

T1 sequence (P41597 whole entry): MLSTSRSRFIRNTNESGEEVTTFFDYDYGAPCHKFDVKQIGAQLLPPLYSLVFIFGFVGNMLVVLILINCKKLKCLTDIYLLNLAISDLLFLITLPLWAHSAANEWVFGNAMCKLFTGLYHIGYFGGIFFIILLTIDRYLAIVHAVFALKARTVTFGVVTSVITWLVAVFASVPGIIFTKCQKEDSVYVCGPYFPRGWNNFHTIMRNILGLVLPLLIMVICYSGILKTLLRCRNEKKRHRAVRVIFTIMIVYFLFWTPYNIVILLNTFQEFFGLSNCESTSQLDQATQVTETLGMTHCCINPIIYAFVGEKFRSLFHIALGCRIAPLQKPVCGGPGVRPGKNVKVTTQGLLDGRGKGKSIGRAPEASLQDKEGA

B1: 43D12 (antibody, V domains shown)
VH: EVQLVESGGGLVQPGGSLRLSCVASGFTFSDYWMSWVRQAPGKGLEWVANIKKDGSVNYYVDSVKGRFTISRDNAKNSLYLQMNSLRAEDTAVYYCTRFDYWGQGTLVTVSS
VL: QAGLTQPPSVSKGLRQTATLTCTGNSNNVGNQGAAWLQQHQGHPPKLLFYRNNNRASGISERLSASRSGNTASLTITGLQPEDEADYYCLTWDSSLSVVVFGGGTKLTVL
notes: tested as IgG; 27/28 '43D12'; the text calls the same pair '43G12'; also called 43G12
[1]
  EC50: 1.8 nM

B2: 42G7 (antibody, V domains shown)
VH: QVQLVQSGAEVKKPGASVKVSCKASGYTFSSYYMHWVRQAPGQGLEWMGIINPSGGNTSYAQKFQGRVTMTRDTSTSTVYMELSSLRSEDTAVYYCARGGYQLPHGRARAFDMWGQGTMVTVSS
VL: AIRMTQSPLSLPVTLGQPASISCTSSQSLVYRDGTTYLNWFQQRPGQSPRRLIYKVSNRDSGVPDRFTGSGSGTTFTLTISRVEAEDVGIYYCMQGTHWPLTFGQGTKVEI
notes: tested as IgG
[1]
  EC50: 15 nM

B3: D1-1/LO (antibody, V domains shown)
VH: QVQLVQSGAEVKKPGASVKVSCKASGYTFTGYYMHWVRQAPGQGLEWMGWINPNSGVTKYAQKFQGRVTMTRDTSTSTVYMELSSLRSEDTAVYYCATGGFGYWGEGTLVTVSS
VL: LPVLTQPPSVSKGLRQTATLTCTGNSNNVGNQGAAWLQQHQGQPPKLLSYRNHNRPSGVSERFSPSRSGDTSSLTITGLQPEDEADYYCLAWDSSLRAFVFGTGTKLTVL
notes: The suffix '/LO' is not explained
[2]
  IC50 in chemotaxis assay using human THP-1 cells, ligand MCP-1 (3 nM): 0.13 nM
  IC50 in chemotaxis assay using human THP-1 cells, ligand MCP-3 (1.1 nM): 0.1 nM
Murine CCR2 [3]
  IC50 in chemotaxis assay using mouse WEHI cells, ligand mouse MCP-1 (0.7 nM): 0.035 nM
[1]
  EC50: 0.13 nM
Murine CCR2 [4]
  EC50: 4.8 nM

B4: 1G11 (antibody, human IgG1, V domains shown)
VH: EVQLVESGAEVKKPGASVKVSCKASGYIFTGYYIHWVRQAPGQGLEWMGWINPNNGVTKYAEKFQGRVTMTRDTSITTAYMDLSRLRSDDTAIYYCATGGFEYWGQGTLVTVSS
VL: LPVLTQPPSVSKGLRQTATLTCTGNSNNVGNQGAAWLQQHQGQPPKLLSYRNHNRPSGVSERFSPSRSGDTSSLTITGLQPEDEADYYCLAWDSSLRAFVFGTGTKLTVL
[5]
  IC50 on MCP-1 (3 nM) induced THP-1 cell migration: 0.079 nM
  IC50 on MCP-5 (6 ng/ml) induced THP-1 cell migration: 0.261 nM
[2]
  IC50 in chemotaxis assay using human THP-1 cells, ligand MCP-1 (3 nM): 0.08 nM
  IC50 in chemotaxis assay using human THP-1 cells, ligand MCP-2 (6.7 nM): 0.16 nM
  IC50 in chemotaxis assay using human THP-1 cells, ligand MCP-3 (1.1 nM): 0.07 nM
  IC50 in chemotaxis assay using human THP-1 cells, ligand MCP-4 (35 nM): 0.06 nM
  IC50 in chemotaxis assay using human THP-1 cells, ligand MCP-5 (0.65 nM): 0.26 nM
[6]
  IC50 in calcium flux assay using human THP-1 cells, ligand MCP-1 (2.5 nM): 0.75 nM
  IC50 in calcium flux assay using human THP-1 cells, ligand MCP-3 (22 nM): 0.25 nM
  IC50 in calcium flux assay using human THP-1 cells, ligand MCP-5 (0.43 nM): 0.56 nM
[1]
  EC50: 0.34 nM

B5: 1B11 (antibody, V domains shown)
VH: QVQLVESGGGVVQPGRSLRLSCAASGFTFSSYAMHWVRQAPGKGLEWVAVISYDGSNKYYADSVKGRFTISRDNSKNTLYLQMNSLKAEDTAVYYCATAAAGPFDYWGQGTTVTVSS
VL: LPVLTQPPSVSKGLRQTATLTCTGNSNNVGNQGAAWLQQHQGQPPKLLSYRNHNRPSGVSERFSPSRSGDTSSLTITGLQPEDEADYYCLAWDSSLRAFVFGTGTKLTVL
notes: tested as IgG
[1]
  EC50: 2.3 nM

B6: 1H5 (antibody, V domains shown)
VH: EVQLVQSGAEVKKPGASVKVSCKASGYTFTSYYMHWVRQAPGQGLEWMGIINPSGGSTSYAHKFQGRVTMTRDTSTSTVYMELSSLRSEDTAVYYCARGGHVLRFLEWLGLEGPFDYWGQGTLVTVSS
VL: LPVLTQPPSVSKGLRQTATLTCTGNSNNVGNQGAAWLQQHQGQPPKLLSYRNHNRPSGVSERFSPSRSGDTSSLTITGLQPEDEADYYCLAWDSSLRAFVFGTGTKLTVL
notes: tested as IgG
[5]
  IC50 on MCP-1 (3 nM) induced THP-1 cell migration: 0.109 nM
  IC50 on MCP-2 (30 ng/ml) induced THP-1 cell migration: 1.9 nM
  IC50 on MCP-3 (6 ng/ml) induced THP-1 cell migration: 2.6 nM
  IC50 on MCP-4 (200 ng/ml) induced THP-1 cell migration: 1.4 nM
  IC50 on MCP-5 (6 ng/ml) induced THP-1 cell migration: 0.349 nM
[1]
  EC50: 1.3 nM

B7: D1-7/LO (antibody, V domains shown)
VH: QVQLVQSGAEVKKPGASVKVSCKASGYTFTGYYMHWVRQAPGQGLEWMGWINPNSGVTKYAQKFQGRVTMTRDTSTSTVYMELSSLRSEDTAVYYCATGSGGGTMDVWGEGTLVTVSS
VL: LPVLTQPPSVSKGLRQTATLTCTGNSNNVGNQGAAWLQQHQGQPPKLLSYRNHNRPSGVSERFSPSRSGDTSSLTITGLQPEDEADYYCLAWDSSLRAFVFGTGTKLTVL
notes: tested as IgG. '/LO' not explained
[1]
  EC50: 0.08 nM

B8: 1B2 (antibody, human IgG1, V domains shown)
VH: EVQLVESGAEVKKPGASVKVSCKASGYTFTGYYMNWVRQAPGQGLEWMGWINPNSGGTKYAQKFQGRVTMTSDTSINTAYMELSRLRYDDTAVYYCATGGFQHWGQGTLVTVSS
VL: LPVLTQPPSVSKGLRQTATLTCTGNSNNVGNQGAAWLQQHQGQPPKLLSYRNHNRPSGVSERFSPSRSGDTSSLTITGLQPEDEADYYCLAWDSSLRAFVFGTGTKLTVL
[5]
  IC50 on MCP-1 (3 nM) induced THP-1 cell migration: 0.087 nM
  IC50 on MCP-5 (3 nM) induced THP-1 cell migration: 0.197 nM
[2]
  IC50 in chemotaxis assay using human THP-1 cells, ligand MCP-1 (3 nM): 0.09 nM
  IC50 in chemotaxis assay using human THP-1 cells, ligand MCP-2 (6.7 nM): 0.06 nM
  IC50 in chemotaxis assay using human THP-1 cells, ligand MCP-3 (1.1 nM): 0.04 nM
  IC50 in chemotaxis assay using human THP-1 cells, ligand MCP-4 (35 nM): 0.05 nM
  IC50 in chemotaxis assay using human THP-1 cells, ligand MCP-5 (0.65 nM): 0.2 nM
[6]
  IC50 in calcium flux assay using human THP-1 cells, ligand MCP-1 (2.5 nM): 0.92 nM
  IC50 in calcium flux assay using human THP-1 cells, ligand MCP-3 (22 nM): 0.29 nM
  IC50 in calcium flux assay using human THP-1 cells, ligand MCP-5 (0.43 nM): 0.89 nM
[1]
  EC50: 0.36 nM

B9: D1-6/LO (antibody, V domains shown)
VH: QVQLVQSGAEVKKPGASVKVSCKASGYTFTGYHMHWVRQAPGQGLEWMGIINPSSGSTKYAQKFQGRVTMTRDTSTSTVYMELSSLRSEDTAVYYCATGGFGYWGEGTLVTVSS
VL: LPVLTQPPSVSKGLRQTATLTCTGNSNNVGNQGAAWLQQHQGQPPKLLSYRNHNRPSGVSERFSPSRSGDTSSLTITGLQPEDEADYYCLAWDSSLRAFVFGTGTKLTVL
notes: as for B7
[1]
  EC50: 3.5 nM

B10: D1-4/LO (antibody, V domains shown)
VH: QVQLVQSGAEVKKPGASVKVSCKASGYTFTGYYMHWVRQAPGQGLEWMGIINPSGGSTSYAQKFQGRVTMTRDTSTSTVYMELSSLRSEDTAVYYCATGGFGYWGEGTLVTVSS
VL: LPVLTQPPSVSKGLRQTATLTCTGNSNNVGNQGAAWLQQHQGQPPKLLSYRNHNRPSGVSERFSPSRSGDTSSLTITGLQPEDEADYYCLAWDSSLRAFVFGTGTKLTVL
notes: as for B7
[1]
  EC50: 1.6 nM

B11: 1A2 (antibody, V domains shown)
VH: EVQLVQSGAEVKKPGASVKVSCKASGYTFTSYYMHWVRQAPGQGLEWMGIINPSGGSTSYAQKFQGRVTMTRDTSTSTVYMELSSLRSEDTAVYYCATGSGGGTMDVWGQGTTVTVSS
VL: LPVLTQPPSVSKGLRQTATLTCTGNSNNVGNQGAAWLQQHQGQPPKLLSYRNHNRPSGVSERFSPSRSGDTSSLTITGLQPEDEADYYCLAWDSSLRAFVFGTGTKLTVL
notes: tested as IgG
[1]
  EC50: 2.9 nM

B12: D1-2/LO (antibody, V domains shown)
VH: QVQLVQSGAEVKKPGASVKVSCKASGYTFTGYHMHWVRQAPGQGLEWMGIINPSGGSTSYAQKFQGRVTMTRDTSTSTVYMELSSLRSEDTAVYYCATGGFGYWGEGTLVTVSS
VL: LPVLTQPPSVSKGLRQTATLTCTGNSNNVGNQGAAWLQQHQGQPPKLLSYRNHNRPSGVSERFSPSRSGDTSSLTITGLQPEDEADYYCLAWDSSLRAFVFGTGTKLTVL
notes: as for B7
[1]
  EC50: 16 nM
Murine CCR2 [4]
  EC50: 81 nM

B13: 54A9 (antibody, V domains shown)
VH: VQLVESGAEVKKPGASVKVSCKASGYTFSSHYMHWVRQAPGQGLEWMGIINPSGGSTIYAQKFQGRVTINADESTSTAYMELSSLGSDDTAVYYCARAAGGAVAGHGARFDYWGQGTLVTVSS
VL: LPVLTQPASVSGSPGQSITISCTGTSSDVGGYNYVSWYQQHPGKAPKLMIYDVSNRPSGVSNRFSGSKSGNTASLTISGLQAEDEADYYCSSYRRSSTLVFGGGTKLTVL
notes: tested as IgG
[1]
  EC50: 0.53 nM
